In publication PMC7496859:

Experiments:
[1] = SEC; preparative SEC on Superdex 200 10/300 GL after Strep-Tactin affinity chromatography; running buffer 20 mM Tris/HCl pH 8.0, 150 mM NaCl; changes of pH, salt and buffering agent, addition of calcium or EDTA had no influence on the monomer/dimer ratio
[2] = target: SmuA(V465E), sucrose isomerase from Serratia plymuthica, produced in the cytoplasm of E. coli (Serratia plymuthica); experiment: as above
[3] = target: SmuA(V465E), sucrose isomerase from Serratia plymuthica, produced in the periplasm of E. coli (Serratia plymuthica); experiment: as above

Substance: SmuA(V465E), sucrose isomerase from Serratia plymuthica, produced in the cytoplasm of E. coli
- ratio of dimer to monomer (SEC peaks) [1]: a ratio of 3 : 1

Substance: SmuA(V465E), sucrose isomerase from Serratia plymuthica, produced in the cytoplasm of E. coli (enzyme)
- stoichiometry N [2]: 2

Substance: SmuA(V465E), sucrose isomerase from Serratia plymuthica, produced in the periplasm of E. coli
- ratio between monomer and dimer (SEC peaks) [1]: the ratio between monomer and dimer to 10 : 1

Substance: SmuA(V465E), sucrose isomerase from Serratia plymuthica, produced in the periplasm of E. coli (enzyme)
- stoichiometry N [3]: 2
